According to patent US20040185507A1:

Columns and labels:
[1] = target: αvβ3 integrin on human cells (human) (UniProt P06756); experiment: 125-I antibody saturation binding on A375S2 cells (n = 6)
[2] = target: αvβ3 integrin on human cells (human) (UniProt P06756); experiment: 125-I antibody saturation binding on M21 cells (n = 7)
[3] = target: αvβ3 integrin on human cells (human) (UniProt P06756); experiment: 125-I antibody saturation binding on A375S2 cells (n = 3)
[4] = target: αvβ3 integrin on human cells (human) (UniProt P06756); experiment: cell-based or functional assay
[5] = target: αvβ3 integrin on human cells (human) (UniProt P06756); experiment: 125-I antibody saturation binding on M21 cells (n = 3)
[6] = target: human αVβ3 integrin, purified (human) (UniProt P06756); experiment: ELISA saturation binding on alphaVbeta3 coated plate, non-linear regression (n = 6)
Chain of human αVβ3 integrin, purified (human) (P06756 31-1048, form in doubt, chain 1 of 2): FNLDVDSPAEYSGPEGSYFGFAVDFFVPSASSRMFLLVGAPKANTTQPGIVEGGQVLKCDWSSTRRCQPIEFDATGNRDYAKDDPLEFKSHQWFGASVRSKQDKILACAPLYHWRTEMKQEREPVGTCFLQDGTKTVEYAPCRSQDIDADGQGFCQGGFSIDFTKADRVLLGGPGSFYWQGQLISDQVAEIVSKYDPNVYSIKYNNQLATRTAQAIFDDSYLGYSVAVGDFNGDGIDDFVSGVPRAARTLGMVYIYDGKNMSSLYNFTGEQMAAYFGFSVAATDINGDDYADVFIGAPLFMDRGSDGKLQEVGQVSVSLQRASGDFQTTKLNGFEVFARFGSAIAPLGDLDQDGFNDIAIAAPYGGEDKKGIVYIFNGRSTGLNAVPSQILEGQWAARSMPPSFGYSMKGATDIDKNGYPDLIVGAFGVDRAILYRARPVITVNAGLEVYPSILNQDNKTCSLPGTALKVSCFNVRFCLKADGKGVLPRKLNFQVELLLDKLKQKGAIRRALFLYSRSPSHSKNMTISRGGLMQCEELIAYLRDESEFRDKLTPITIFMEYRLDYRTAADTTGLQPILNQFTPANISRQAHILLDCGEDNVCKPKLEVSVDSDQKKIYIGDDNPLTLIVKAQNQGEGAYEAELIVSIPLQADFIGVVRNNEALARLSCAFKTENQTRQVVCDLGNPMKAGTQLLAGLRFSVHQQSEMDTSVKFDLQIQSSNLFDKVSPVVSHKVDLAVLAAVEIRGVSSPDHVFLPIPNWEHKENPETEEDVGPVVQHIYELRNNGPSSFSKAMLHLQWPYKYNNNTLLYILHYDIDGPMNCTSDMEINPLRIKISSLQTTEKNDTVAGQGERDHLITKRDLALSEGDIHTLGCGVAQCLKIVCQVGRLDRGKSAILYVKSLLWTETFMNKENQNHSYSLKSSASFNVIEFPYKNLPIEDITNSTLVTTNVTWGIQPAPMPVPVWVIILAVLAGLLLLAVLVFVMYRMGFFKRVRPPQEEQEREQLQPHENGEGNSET
Chain of human αVβ3 integrin, purified (human) (P05106 27-788, form in doubt, chain 2 of 2, further chain): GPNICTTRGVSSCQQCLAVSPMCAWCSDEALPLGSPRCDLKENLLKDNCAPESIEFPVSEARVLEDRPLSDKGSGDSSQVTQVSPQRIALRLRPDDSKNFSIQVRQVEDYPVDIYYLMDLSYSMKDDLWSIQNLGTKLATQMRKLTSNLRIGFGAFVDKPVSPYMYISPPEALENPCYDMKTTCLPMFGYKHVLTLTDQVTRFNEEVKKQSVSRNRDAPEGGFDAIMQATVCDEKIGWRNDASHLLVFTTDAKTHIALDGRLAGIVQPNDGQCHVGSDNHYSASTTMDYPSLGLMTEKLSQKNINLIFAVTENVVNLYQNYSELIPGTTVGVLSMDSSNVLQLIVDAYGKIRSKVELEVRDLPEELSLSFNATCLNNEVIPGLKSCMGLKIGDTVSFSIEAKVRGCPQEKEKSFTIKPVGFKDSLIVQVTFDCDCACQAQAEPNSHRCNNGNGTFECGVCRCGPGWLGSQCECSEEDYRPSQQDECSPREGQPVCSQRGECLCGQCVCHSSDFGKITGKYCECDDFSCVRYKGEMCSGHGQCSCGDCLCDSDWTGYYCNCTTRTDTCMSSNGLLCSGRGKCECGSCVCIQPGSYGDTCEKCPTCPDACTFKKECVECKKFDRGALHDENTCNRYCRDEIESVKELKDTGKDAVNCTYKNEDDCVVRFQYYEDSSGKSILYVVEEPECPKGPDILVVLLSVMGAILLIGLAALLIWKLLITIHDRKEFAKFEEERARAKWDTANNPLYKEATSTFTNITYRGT

[7] = target: human αVβ3 integrin, purified (human) (UniProt P06756); experiment: ELISA on αVβ3 coated plates

Chain of αvβ3 integrin on human cells (human) (P06756 31-1048, chain 1 of 2): as the sequence (P06756 31-1048, form in doubt, chain 1 of 2) above
Chain of αvβ3 integrin on human cells (human) (P05106 27-788, chain 2 of 2, further chain): as the sequence (P05106 27-788, form in doubt, chain 2 of 2, further chain) above

Receptors per cell (receptors/cell) [1] | Receptors per cell (receptors/cell) [2] | Kd [3] [nM] | A375S.2 cell adhesion to fibrin, % of no-antibody control (10 µg/ml) [4] [%] | A375S.2 cell adhesion to fibrinogen, % of no-antibody control (10 µg/ml) [4] [%] | A375S.2 cell adhesion to fibronectin, % of no-antibody control (10 µg/ml) [4] [%] | A375S.2 cell adhesion to gelatin, % of no-antibody control (10 µg/ml) [4] [%] | A375S.2 cell adhesion to type I collagen, % of no-antibody control (10 µg/ml) [4] [%] | A375S.2 cell adhesion to vitronectin, % of no-antibody control (10 µg/ml) [4] [%] | HUVEC adhesion to fibrin, % of no-antibody control (10 µg/ml) [4] [%] | HUVEC adhesion to fibrinogen, % of no-antibody control (10 µg/ml) [4] [%] | HUVEC adhesion to fibronectin, % of no-antibody control (10 µg/ml) [4] [%] | HUVEC adhesion to gelatin, % of no-antibody control (10 µg/ml) [4] [%] | HUVEC adhesion to type I collagen, % of no-antibody control (10 µg/ml) [4] [%] | HUVEC adhesion to vitronectin, % of no-antibody control (10 µg/ml) [4] [%] | Kd [5] [nM] | Kd [6] [nM] | EC50 [7] [µg/mL] | Binder
370000 | 660000 | 22 | 12.9 | 6.5 | 104 | 6 | 93.1 | 38.1 | 35.8 | 8.7 | 96.3 | 2.5 | 99.6 | 54.9 | 10 | 0.25 | – | ReoPro (c7E3 Fab) (Fab, INN chains, looked up, V domains shown, Fab 125I label) VH: EVQLQQSGTVLARPGASVKMSCEASGYTFTNYWMHWVKQRPGQGLEWIGAIYPGNSDTSYIQKFKGKAKLTAVTSTTSVYMELSSLTNEDSAVYYCTLYDGYYVFAYWGQGTLVTVSA VL: EIVLTQSPVTLSVTPGDSVSLSCRASRDISNNLHWFQQTSHESPRLLIKYASQSMSGIPSRFSGSGSGTDFTLSINSVETEDFGMYFCQQTNSWPYTFGGGTKLEIK
– | – | – | – | – | – | – | – | – | – | – | – | – | – | – | – | – | 0.07 | c7E3 IgG (antibody, INN chains, looked up, V domains shown, IgG) VH: EVQLQQSGTVLARPGASVKMSCEASGYTFTNYWMHWVKQRPGQGLEWIGAIYPGNSDTSYIQKFKGKAKLTAVTSTTSVYMELSSLTNEDSAVYYCTLYDGYYVFAYWGQGTLVTVSA VL: EIVLTQSPVTLSVTPGDSVSLSCRASRDISNNLHWFQQTSHESPRLLIKYASQSMSGIPSRFSGSGSGTDFTLSINSVETEDFGMYFCQQTNSWPYTFGGGTKLEIK
